Laboratory results as given in patent US20180312587A1 (ADURO BIOTECH HOLDINGS EUROPE B V, published 2018).

Legend:
human SIRPγ = biological target: T1, human SIRPγ (human, UniProt Q9P1W8 29-387); test: CELISA, CHO-K1 transfectants; extrapolated
T1 construct: on transfected CHO-K1 cells; also called hSIRPγ
Procedure, shortened: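 Transiently transfected CHO-K1 cells expressing full-length target, grown to confluence, incubated 1 h at 37° C with humanized antibodies (from 10 μg/mL, serially diluted). Bound antibody detected with anti-IgG-HRP and TMB, absorbance 450/610 nm. EC50 from binding curves.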

human SIRPα variant 1 = biological target: T2, human SIRPα variant 1 (human, UniProt P78324 31-504); test: flow cytometry, blockade of DyLight488-hCD47/Fc binding to U-937 cells
T2 construct: full length ORF on transfected CHO-K1 or HEK293 cells; entry includes the signal peptide; also called hSIRPαV1; SIRPαV1
Procedure: For this purpose, THP-1 (ATCC TIB-202) and U-937 (ATCC CRL-1593.2) monocyte cell lines were used as the source of hSIRPα in the assay. THP-1 and U-937 cells were seeded in 96-well round bottomed tissue culture plates and incubated for 45 minutes with FcR Blocking Reagent (Miltenyi Biotec) and hSIRPα.50A antibody (200 μg/mL and dilutions thereof) in PBS/1% BSA at 4° C. […] After this labeling procedure, cells were washed two times, resuspended in PBS/1% BSA containing 0.1 μg/mL DAPI (BioLegend), and analysed by flow cytometry on the FACSCanto II (BD Biosciences). Data were processed and analysed with FlowJo V10 software (FlowJo, LLC).
As depicted in FIG. 4 and the following Table 11, binding of recombinant hCD47 fused to an Fc domain of human IgG1 was monitored in the presence of increasing amounts of the hSIRPα.50A antibody. Antibody hSIRPα.50A blocked the hSIRPα/hCD47 interaction, using the flow cytometry-based method described above. […] IC50 values represent the concentration at which half of the inhibition is observed.

T1 sequence (Q9P1W8 29-387 limits assumed): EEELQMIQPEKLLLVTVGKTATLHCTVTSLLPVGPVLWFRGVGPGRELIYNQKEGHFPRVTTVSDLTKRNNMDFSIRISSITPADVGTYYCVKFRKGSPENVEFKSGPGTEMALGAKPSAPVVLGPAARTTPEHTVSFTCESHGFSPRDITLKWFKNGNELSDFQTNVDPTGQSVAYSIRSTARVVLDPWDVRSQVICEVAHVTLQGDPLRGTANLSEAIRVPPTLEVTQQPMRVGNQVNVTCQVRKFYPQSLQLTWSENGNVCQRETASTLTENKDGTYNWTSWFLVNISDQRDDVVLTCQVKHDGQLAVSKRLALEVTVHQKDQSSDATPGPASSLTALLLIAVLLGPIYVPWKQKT
T2 sequence (P78324 31-504 limits assumed, change not shown): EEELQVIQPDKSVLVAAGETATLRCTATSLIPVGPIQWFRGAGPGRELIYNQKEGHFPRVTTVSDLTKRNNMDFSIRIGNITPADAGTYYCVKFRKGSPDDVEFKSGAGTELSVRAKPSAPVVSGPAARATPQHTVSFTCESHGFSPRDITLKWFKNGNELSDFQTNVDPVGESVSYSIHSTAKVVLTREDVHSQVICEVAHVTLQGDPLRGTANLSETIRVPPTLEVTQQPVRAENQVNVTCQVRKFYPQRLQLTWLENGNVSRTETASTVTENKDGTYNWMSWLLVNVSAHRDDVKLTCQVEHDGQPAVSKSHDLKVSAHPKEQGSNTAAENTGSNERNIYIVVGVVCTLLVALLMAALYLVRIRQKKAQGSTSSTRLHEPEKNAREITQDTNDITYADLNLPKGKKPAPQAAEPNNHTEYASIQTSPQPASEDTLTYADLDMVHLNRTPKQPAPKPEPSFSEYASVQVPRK

EC50 (human SIRPγ): 1.25 nM | IC50 (human SIRPα variant 1): 7.16 nM
B1: hSIRPα.50A (antibody, V domains shown)
VH: QVQLQQSGPELVKPGASVRISCKASGFTFTNYYIHWVKQRPGQGLEWIGWIYPGNVNTKYNEKFKAKATLTADKSSTTAYMQLSSLASEDSAVYFCARPTIIATDFDVWGAGTTVTVSS
VL: DIVMTQSHKFMSTSVGDRVNITCKASQGVGTAVGWYQQKPGQSPRLLIYWASTRHTGVPDRFTGSGSGTDFSLAISNVQSEDLADYFCQQYSTYPFTFGGGTNLEIK
notes: light chain constant domain not tied; also called mouse hSIRPα.50A; hSIRPα.50A.mIgG1
